Measured values reported in publication PMC10015519.

What was measured:
[1] = molecular target: PF-W-Trimer (pre-fusion trimerized SARS-CoV-2 WA1 spike protein ectodomain fused to the Trimer Domain) (SARS-CoV-2) (UniProt P0DTC2); assay: SEC-MALS
[2] = molecular target: PF-W-Trimer (pre-fusion trimerized SARS-CoV-2 WA1 spike protein ectodomain fused to the Trimer Domain) (SARS-CoV-2) (UniProt P0DTC2); assay: reducing and non-reducing SDS-PAGE
[3] = molecular target: PF-D-Trimer (pre-fusion trimerized SARS-CoV-2 Delta spike protein ectodomain fused to the Trimer Domain) (SARS-CoV-2) (UniProt P0DTC2); assay: SEC-MALS
[4] = molecular target: PF-D-Trimer (pre-fusion trimerized SARS-CoV-2 Delta spike protein ectodomain fused to the Trimer Domain) (SARS-CoV-2) (UniProt P0DTC2); assay: reducing and non-reducing SDS-PAGE

**Q.** Which stoichiometry N [1] does the source give for “PF-W-Trimer (pre-fusion trimerized SARS-CoV-2 WA1 spike protein ectodomain fused to the Trimer Domain) (from UniProt P0DTC2 14-1213)” here?
**A.** 3

**Q.** And the stoichiometry N [2]?
**A.** 3

**Q.** With “PF-D-Trimer (pre-fusion trimerized SARS-CoV-2 Delta spike protein ectodomain fused to the Trimer Domain) (from UniProt P0DTC2 14-1213)” as the substance, how does the stoichiometry N [3] read?
**A.** 3

**Q.** And the stoichiometry N [4]?
**A.** 3
